# Experimental data taken from patent publication US20190127473A1 (Dana-Farber, published 2019).
# B1: 8F4 anti-Gal1 monoclonal antibody (antibody, V domains shown)
# VH: EVQLQQSVAEFVRPGASVRLSCTASGFNIKNTYIHWVRQRPEQGLEWIGKIDPANGNTKYVPEFQGKATMTADTSSNTVYLHLSSLTSEDTAIYYCVDGYYGWYFAVWGTGTTVTVSS
# VL: QAVVTQESALTTSPGETVTLTCRSSTGAVTTSNYANWVQEKPDHLFTGLIGATNNRAPGVPARFSGSLIGDKAVLTITGAQTEDEAIYFCALWYRNHFIFGSGTKVTVL
# notes: Hybridoma monoclonal antibody; The light chain is lambda; Hybridoma 8F4.F8.G7 is deposited as ATCC PTA-10535; also called 8F4 mAb; 8F4.F8.G7
# Tests used:
# human galectin-1 (Gal1) = molecular target: T1, human galectin-1 (Gal1) (human, UniProt P09382 2-135); test: SPR (BIAcore 3000, 25 C, HBS-EP), 8F4 captured by anti-mouse antibody on CM-5 chip, galectin as analyte, 1:1 Langmuir fit; rhGal1 as analyte; ~250 RU of 8F4 captured
# T1 construct: Used as recombinant protein bought from R&D Systems (SPR) and as endogenous protein in L428 cell lysate (Western blot); also called hGal1; rhGal1
# T1 sequence (P09382 2-135 limits assumed): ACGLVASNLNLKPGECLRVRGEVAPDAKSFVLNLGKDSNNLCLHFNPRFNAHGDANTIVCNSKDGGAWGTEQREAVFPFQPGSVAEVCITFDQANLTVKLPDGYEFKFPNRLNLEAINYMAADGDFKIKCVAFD
# Experimental: (§1) Surface Plasmon Resonance (SPR) analyses (also called Biomolecular Interaction Analysis, BlAcore) were also conducted in order to further define the biophysical properties (e.g., kₒₙ, koff, koffkₒₙ (KD) of Gal1's interaction with the 8F4 mAb. SPR experiments were performed at 25° C. in the standard BlAcore running buffer HBS-EP on a BlAcore 3000 Instrument (BlAcore). In brief, anti-mouse antibody was first captured on the CM-5 sensor chip (GE HealthCare). Afterwards, approximately 250 response units (RU) of the 8F4 anti-Gal1 mAb were immobilized (with exception of ˜350 RU for rmGal1 assay) and followed by various dilutions of recombinant galectin (human galetin-1, 2, 3, 4, 7, 8, 9 or murine galectin-1 (mGal1), from R&D Systems) to assess the binding of galectin to 8F4. All data are shown after subtraction from a channel loaded with buffer alone. Data analysis to obtain the binding curves shown and equilibrium dissociation constant (KD) was performed using BlAevaluation 3.1 (BlAcore) by globally fitting the data to a simple 1:1 (Langmuir) binding model.
# [1] = molecular target: T2, recombinant human galectin-2 (human, UniProt P05162 2-132, limits assumed); test: SPR (BIAcore 3000), 8F4 captured by anti-mouse antibody on CM-5 chip, galectin as analyte
# T2 construct: Bought; also called Gal2; Ga12 (so in the source)
# T2 sequence (looked up): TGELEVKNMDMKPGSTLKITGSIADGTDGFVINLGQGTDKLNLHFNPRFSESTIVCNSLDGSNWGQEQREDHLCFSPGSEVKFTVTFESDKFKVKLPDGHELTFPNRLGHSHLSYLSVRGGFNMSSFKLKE
# Experimental: as §1
# [2] = molecular target: T3, recombinant human galectin-4 (human, UniProt P56470 2-323, limits assumed); test: as above
# T3 construct: Bought; also called Gal4; Ga14 (so in the source)
# T3 sequence (looked up): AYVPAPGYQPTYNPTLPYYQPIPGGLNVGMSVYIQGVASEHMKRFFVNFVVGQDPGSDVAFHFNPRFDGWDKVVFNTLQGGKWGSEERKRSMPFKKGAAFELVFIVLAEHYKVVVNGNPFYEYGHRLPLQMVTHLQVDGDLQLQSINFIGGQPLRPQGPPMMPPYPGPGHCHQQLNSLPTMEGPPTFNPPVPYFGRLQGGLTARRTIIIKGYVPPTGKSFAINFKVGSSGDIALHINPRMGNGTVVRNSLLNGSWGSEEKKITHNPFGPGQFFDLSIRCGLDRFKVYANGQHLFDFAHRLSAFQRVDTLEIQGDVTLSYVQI
# Experimental: as §1
# [3] = molecular target: T4, recombinant human galectin-9 (human, UniProt O00182-2 2-323, limits assumed); test: as above
# T4 construct: Bought; also called Gal9; Ga19 (so in the source)
# T4 sequence (O00182 other isoform, or with tags, fused parts or gaps limits assumed): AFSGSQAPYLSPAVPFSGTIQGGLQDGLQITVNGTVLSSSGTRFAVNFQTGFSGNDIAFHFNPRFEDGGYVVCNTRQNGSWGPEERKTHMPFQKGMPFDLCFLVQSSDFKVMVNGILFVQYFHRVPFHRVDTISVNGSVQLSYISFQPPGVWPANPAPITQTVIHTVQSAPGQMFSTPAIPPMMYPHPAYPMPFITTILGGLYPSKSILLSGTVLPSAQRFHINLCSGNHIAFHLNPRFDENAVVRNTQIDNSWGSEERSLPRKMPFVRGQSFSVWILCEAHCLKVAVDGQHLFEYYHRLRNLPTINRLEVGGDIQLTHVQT
# Experimental: as §1
# [4] = molecular target: T5, recombinant human galectin-3 (human, UniProt P17931 2-250); test: as above
# T5 construct: Bought; also called Gal3; Ga13 (so in the source)
# T5 sequence (P17931 2-250 limits assumed): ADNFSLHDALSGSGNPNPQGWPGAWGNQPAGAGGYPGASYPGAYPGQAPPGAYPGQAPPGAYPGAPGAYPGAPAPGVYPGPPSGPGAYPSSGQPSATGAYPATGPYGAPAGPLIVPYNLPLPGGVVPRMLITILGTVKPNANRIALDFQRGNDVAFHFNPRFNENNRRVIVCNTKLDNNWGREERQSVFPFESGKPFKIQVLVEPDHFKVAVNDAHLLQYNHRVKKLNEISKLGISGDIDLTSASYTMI
# Experimental: as §1
# [5] = molecular target: T6, recombinant human galectin-7 (human, UniProt P47929 2-136, limits assumed); test: as above
# T6 construct: Bought; also called Gal7; Ga17 (so in the source)
# T6 sequence (P47929 2-136 limits assumed): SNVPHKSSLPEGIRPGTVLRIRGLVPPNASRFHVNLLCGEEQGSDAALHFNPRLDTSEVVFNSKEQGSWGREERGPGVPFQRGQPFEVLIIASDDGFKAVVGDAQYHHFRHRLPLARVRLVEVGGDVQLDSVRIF
# Experimental: as §1
# [6] = molecular target: T7, recombinant human galectin-8 (human, UniProt O00214 1-317, limits assumed); test: as above
# T7 construct: Bought; also called Gal8; Ga18 (so in the source)
# T7 sequence (looked up): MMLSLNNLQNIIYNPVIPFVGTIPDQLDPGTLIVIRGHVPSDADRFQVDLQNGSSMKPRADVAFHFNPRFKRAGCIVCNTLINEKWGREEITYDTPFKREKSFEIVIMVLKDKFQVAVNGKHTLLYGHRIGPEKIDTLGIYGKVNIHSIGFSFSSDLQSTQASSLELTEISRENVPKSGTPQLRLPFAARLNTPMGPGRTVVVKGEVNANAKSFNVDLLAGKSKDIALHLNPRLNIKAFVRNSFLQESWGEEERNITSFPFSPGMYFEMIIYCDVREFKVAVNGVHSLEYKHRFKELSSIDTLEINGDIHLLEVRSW
# Experimental: as §1
# mouse galectin-1 (Gal1) = molecular target: T8, mouse galectin-1 (Gal1) (mouse, UniProt P16045 2-135); test: SPR (BIAcore 3000, 25 C, HBS-EP), 8F4 captured by anti-mouse antibody on CM-5 chip, galectin as analyte, 1:1 Langmuir fit; rmGal1 as analyte; ~350 RU of 8F4 captured
# T8 construct: Used as recombinant protein bought from R&D Systems (SPR) and as endogenous protein in B16-F10 cell lysate (Western blot); also called mGal1; rmGal1
# T8 sequence (P16045 2-135 limits assumed): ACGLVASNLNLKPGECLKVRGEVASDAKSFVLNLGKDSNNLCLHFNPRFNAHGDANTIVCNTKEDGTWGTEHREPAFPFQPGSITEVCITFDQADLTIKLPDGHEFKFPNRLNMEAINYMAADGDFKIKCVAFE
# Experimental: as §1
binder,measurement,setting,value
B1,Kd,human galectin-1 (Gal1),13 nM
same,binding result,[1],no binding
same,binding result,[2],no binding
same,binding result,[3],no binding
same,binding result,[4],no binding
same,binding result,[5],no binding
same,binding result,[6],no binding
same,Kd,mouse galectin-1 (Gal1),38.5 nM
